B1: Hairpin Ribozyme (parent)
chain: GUCCUCUUUCACGUGCGCGUGAAAGAGAGAAGUGAACCAGAGAAACACACGUUGUGGUAUAUUACCUGGUA

Variants of: B1
Test: self-cleavage, relative activity (ratio to wild type); higher = more cleavage; co-transcriptional
With GUCCUCUUUCACGUGCGCGUGAAAGAGAGAACUGGACCAGAGAAACACACGUUGUGGUAUAUUACCUGGUA [G32C A35G] the self-cleavage was 0.146.
For GUCCUCUUUCACGUGCGCGUGAAAAAGAGAAGUGAACCAGAGAAACGCACGUUGUGGUAUAUUACCUGGUA [G25A A47G], the self-cleavage was 0.277.
GUCCUCUUUCACGUGCGCGUGAAAGAGAGAAGUGAACCAGAGAAAUACACGUUGUGGUAUAUUACAUGGUA [C46U C66A] gave a self-cleavage of 0.113.
Variant GUCCUCGUUCACGUGCGCGUGAAAGAGAGAAGUGAACCAGAGAAACAAACGUUGUGGUAUAUUACCUGGUA [U7G C48A] has a self-cleavage of 0.142.
For GUCCUCUUUCACGUGCGCGUGAAAGAGAGAAGUGAACCAGAGAAACACACGUUGUGGUAUAUUAGCUGAUA [C65G G69A], the self-cleavage was 0.138.
With GUCCUCUUUCACGUGCGCGUGAACGAGAGAAGUGAACCAGAGAAACACACGUUGUGGUAUAUUACCUGGUG [A24C A71G] the self-cleavage was 0.99.
GUCCUCUUUCACGUGCGCGUGAAAGAGAGAAGUGAACGAGAGAAACACACGUUGUGGUAUAUUAACUGGUA [C38G C65A] gave a self-cleavage of 0.145.
Variant GUCCUCUUUCACGUGCGCGUGAAAGAGAGAAGUGAACCAUAGAAACACACGGUGUGGUAUAUUACCUGGUA [G40U U52G] has a self-cleavage of 0.172.
Variant GUCCUCUUUCACGCGCGCGUGAAAGAGAGAAGUGAACCACAGAAACACACGUUGUGGUAUAUUACCUGGUA [U14C G40C] has a self-cleavage of 0.156.
Work on GUCCUCUUUCACGUGCGCGUGAAAGAGAGAAGUGAACCAGGGAAACACACGCUGUGGUAUAUUACCUGGUA [A41G U52C] yielded a self-cleavage of 0.827.
Variant GUCCUCUUUCACGUGCGCGUGAAGGAGAGAAGUGAACCAGAGAAACACACGUUGUGGUAUACUACCUGGUA [A24G U62C] has a self-cleavage of 0.257.
GUCCUCUUUCACGUGGGCGUGAAAGUGAGAAGUGAACCAGAGAAACACACGUUGUGGUAUAUUACCUGGUA [C16G A26U] showed a self-cleavage of 0.293.
GUCCUCUUUCACGUGCGCGUGAAAUAGAGAAGUGAACCAGAGAAGCACACGUUGUGGUAUAUUACCUGGUA [G25U A45G] showed a self-cleavage of 0.118.
Variant GUCCUCUUUAACGUGCGCGUGAAAGAGAGAAGUGAACCAGAGAAACACACGUUGUGGUAUAUUCCCUGGUA [C10A A64C] has a self-cleavage of 0.185.
GUCCUCUUUCACGUGCGCGUGAAAGAGAGAAGUGGACCAGAGAAACACACGUUGUGGUAUAUUACCCGGUA [A35G U67C] showed a self-cleavage of 0.0903.
With GUCCUCUUUCACGUGUGCGUGAAAGAGAGAAGGGAACCAGAGAAACACACGUUGUGGUAUAUUACCUGGUA [C16U U33G] the self-cleavage was 0.148.
In the case of GUCCUCUUUCACGUGCGCGUGAAAGAGAGAAGUGAACCAGAGAAACACACGUUGUGGUGCAUUACCUGGUA [A59G U60C], the self-cleavage is reported as 0.238.
In the case of GUCCUCGUUCACGUGCGCGUGAAAGAAAGAAGUGAACCAGAGAAACACACGUUGUGGUAUAUUACCUGGUA [U7G G27A], the self-cleavage is reported as 0.369.
Variant GUCCUCUUUCACGUGCGCGUGAAAGAGAGGAGGGAACCAGAGAAACACACGUUGUGGUAUAUUACCUGGUA [A30G U33G] has a self-cleavage of 0.0952.
Variant GUCCUCUUUCACGUGCGCGUGAAAGAGAGAAGUGAACCAGAGCAAGACACGUUGUGGUAUAUUACCUGGUA [A43C C46G] has a self-cleavage of 0.245.
Work on GUCCUCUUUCACGUGCGCGUGAAAGAGAAAAGUGAACCAGAGAAACACACGUUGUGGUAUAUAACCUGGUA [G29A U63A] yielded a self-cleavage of 0.124.
GUCCUCUUUCACGUGGGCGUGAAAGAGAGAAGUGAACCACAGAAACACACGUUGUGGUAUAUUACCUGGUA [C16G G40C] showed a self-cleavage of 0.143.
GUCCUCUUUCACGUGCGCGUGAAAGAAAGAAGUGAACCAGAGAAACACACGUUAUGGUAUAUUACCUGGUA [G27A G54A] showed a self-cleavage of 0.221.
GUCCUCUUUCACGUGCGCGUGAAAGAGAAAAUUGAACCAGAGAAACACACGUUGUGGUAUAUUACCUGGUA [G29A G32U] showed a self-cleavage of 0.0536.
With GUCCUCUUUCACGUGCGCGUUAAAGAGAGAAGUGAACCAGAGAAACACACGUUGUGGUAUAGUACCUGGUA [G21U U62G] the self-cleavage was 0.156.
In the case of GUCCUCUUUCACGUGCGCGUGGAAGAGAGAAGUGAACCAGAGAAACCCACGUUGUGGUAUAUUACCUGGUA [A22G A47C], the self-cleavage is reported as 0.27.
For GUCCUCUUUCACGUGCGCGUGAAAGAGAGAAGUGAACCAGAGAAACCCACAUUGUGGUAUAUUACCUGGUA [A47C G51A], the self-cleavage was 0.303.
GUCCUCUUUCACGUGCGCGUGAAAGAGAGAAGUGAACCAGAGAAACAGACGUUGUGGUAUAUUACCUGGUG [C48G A71G] showed a self-cleavage of 0.142.
GUCCUCUUUCACGUGCGCGUGAGAGAGAGAAGUGAACCAGAGAAACACACGUUGUGGUAGAUUACCUGGUA [A23G U60G] gave a self-cleavage of 0.516.
GUCCUCUUUCACGUGCGCGUGAAAGAGAGAAGUGAACCAGAGAAACACUCGUUGUGGUAUAUAACCUGGUA [A49U U63A] gave a self-cleavage of 0.183.
Work on GUCCUCUUUCACGUGCGCGUGAAAGAGAGAAGGGAACCAGAGAAACACACGUUGUCGUAUAUUACCUGGUA [U33G G56C] yielded a self-cleavage of 0.0919.
Work on AUCCUCUUUCACGUGCGCGUGAAAGAGAGAAGUGAACCAGAGAAACACCCGUUGUGGUAUAUUACCUGGUA [G1A A49C] yielded a self-cleavage of 0.0908.
Work on GUCCUCUUUGACGUGCGCGUGAAAGAGAGAAGUGAACCAAAGAAACACACGUUGUGGUAUAUUACCUGGUA [C10G G40A] yielded a self-cleavage of 0.194.
For GUCCUCUUUCACGUGCGCGUGAAAGGGAGAAGUGAACCAGAGAAACACACGUUGAGGUAUAUUACCUGGUA [A26G U55A], the self-cleavage was 0.283.
For GUCCUCUUUCACGUGCGCGUGAAAGAGAGAAGUGAAUCAGAGAAACAAACGUUGUGGUAUAUUACCUGGUA [C37U C48A], the self-cleavage was 0.12.
GUCCUCUUUCACGUGCCCGUGAAAGAGAGAAGUGAACCAGAGAAACACUCGUUGUGGUAUAUUACCUGGUA [G17C A49U] gave a self-cleavage of 0.263.
With GUCCUCUUUCACGUGCGCGUGAAAGAGAGAAGUGGACCAGAGACACACACGUUGUGGUAUAUUACCUGGUA [A35G A44C] the self-cleavage was 0.211.
Work on GUCCUCUUUCACGUGCUCGUGAAAGAGAGAAGUGGACCAGAGAAACACACGUUGUGGUAUAUUACCUGGUA [G17U A35G] yielded a self-cleavage of 1.02.

Source: the RNAGym collection of RNA variant scans (doi:10.7554/elife.80360)
